For 53 sequences, Kd and IC50 results are on record in the Immune Epitope Database (IEDB).

Broadly, the Kd is the concentration at which binding is half-saturated. A word on the IC50: it is the concentration at which inhibition is half-maximal. Low readings indicate greater potency, high ones weaker potency.

Where only a bound is given, the exact number is not on record here.

One experiment concerns the target HLA-A*31:01. Description: IEDB peptide-MHC binding, purified MHC/direct/fluorescence; filed as Kd, often an IC50 or EC50 that approximates it; ≥ and ≤ were set here for values at or beyond the usual limits of such assays.
A further experiment deals with HLA-A*03:01. The experiment is described as above.
In a further experiment the target is HLA-A*30:01. The experiment is described as follows: IEDB peptide-MHC binding, purified MHC/competitive/radioactivity; filed as Kd, often an IC50 or EC50 that approximates it; ≥ and ≤ were set here for values at or beyond the usual limits of such assays.
In experiment [1] the target is HLA-A*01:01. Description: IEDB peptide-MHC binding, purified MHC/direct/fluorescence; filed as Kd, often an IC50 or EC50 that approximates it; ≥ and ≤ were set here for values at or beyond the usual limits of such assays.
Another experiment addresses HLA-B*27:05. Described as above.
A further experiment addresses HLA-B*15:01. Described as above.
The target in the next experiment is HLA-B*58:01. The experiment is described as above.
Experiment [2] addresses HLA-A*02:01. The experiment is described as above.
Experiment [3] concerns the target HLA-A*01:01. Description: IEDB peptide-MHC binding, purified MHC/competitive/radioactivity; filed as Kd, often an IC50 or EC50 that approximates it; ≥ and ≤ were set here for values at or beyond the usual limits of such assays.
The next experiment addresses HLA-A*69:01. The experiment is described as follows: IEDB peptide-MHC binding, purified MHC/direct/fluorescence; filed as Kd, often an IC50 or EC50 that approximates it; ≥ and ≤ were set here for values at or beyond the usual limits of such assays.
Another experiment concerns the target HLA-B*40:01. The description is as above.
The target in a further experiment is HLA-A*02:03. The experiment is described as follows: IEDB peptide-MHC binding, purified MHC/competitive/radioactivity; filed as Kd, often an IC50 or EC50 that approximates it; ≥ and ≤ were set here for values at or beyond the usual limits of such assays.
In a further experiment the target is HLA-A*02:06. The experiment is described as above.
The target of another experiment is HLA-A*02:02. The experiment is described as above.
Experiment [4] concerns the target HLA-A*02:01. The experiment is described as follows: IEDB peptide-MHC binding, purified MHC/competitive/fluorescence; ≥ and ≤ were set here for values at or beyond the usual limits of such assays.
In a further experiment the target is HLA-A*11:01. The experiment is described as follows: IEDB peptide-MHC binding, purified MHC/direct/fluorescence; filed as Kd, often an IC50 or EC50 that approximates it; ≥ and ≤ were set here for values at or beyond the usual limits of such assays.
Another experiment addresses HLA-B*46:01. The experiment is described as above. Conditions: source organism: West Nile virus.
A further experiment addresses HLA-B*07:02. The description is as above. Conditions: source organism: Escherichia coli O157:H7.
[5] abbreviates: source organism: Burkholderia pseudomallei.
[6] abbreviates: source organism: Vaccinia virus WR.
[7] abbreviates: source organism: Brucella melitensis.
Where [8] appears, read: source organism: Salmonella enterica subsp. enterica serovar Typhimurium.
Setting [9] is: source organism: SARS coronavirus Tor2.
Where [10] appears, read: source organism: Dengue virus 4 Dominica/814669/1981.
Where [11] appears, read: source organism: Mycobacterium tuberculosis.
Setting [12] is: source organism: Mycobacterium tuberculosis variant bovis.
Where [13] appears, read: source organism: Dengue virus 1 Brazil/97-11/1997.
Where [14] appears, read: source organism: Zaire ebolavirus.
Setting [15] is: source organism: Coxiella burnetii.
Setting [16] is: source organism: Haemophilus influenzae.
[17] abbreviates: source organism: Sudan ebolavirus.
Where [18] appears, read: source organism: Dengue virus 4 Philippines/H241/1956.
The mark [19] stands for this setting: source organism: Salmonella enterica.
[20] abbreviates: source organism: Rickettsia prowazekii.
The mark [21] stands for this setting: source organism: Yersinia enterocolitica.
Where [22] appears, read: source organism: Francisella tularensis subsp. holarctica LVS.
Where [23] appears, read: source organism: Escherichia coli O157:H7.

On to AQAIGRVER, for which the Kd is 0.0373 µM with HLA-A*31:01 (setting [5]) and at least 20 µM with HLA-A*03:01 (setting [5]).

For ATKNGNIFV, the Kd with HLA-A*30:01 (setting [6]) was found to be 3.85 nM.

Regarding RLYYDSMSY, the Kd was 7.95 µM with HLA-A*01:01 [1] (source organism: SARS-CoV1); 6.94 µM in the experiment with HLA-A*31:01 (source organism: SARS-CoV1); 4.81 µM in the experiment with HLA-B*27:05 (source organism: SARS-CoV1); 0.13 µM with HLA-B*15:01 (source organism: SARS-CoV1); 0.778 µM with HLA-B*58:01 (source organism: SARS-CoV1); at least 22.8 µM with HLA-A*02:01 [2] (source organism: SARS-CoV1).

On to FTEENQWDSA, for which the dissociation constant Kd with HLA-A*01:01 [3] (source organism: Dengue virus 3 Martinique/1243/1999) was determined as 0.197 µM.

As for WMARRHAER, the dissociation constant Kd was 0.0139 µM with HLA-A*31:01 (setting [7]) and at least 20 µM with HLA-A*03:01 (setting [7]).

Take KQPNRPLFI: the Kd is at least 20 µM in the experiment with HLA-A*69:01 (setting [8]) and 6 µM in the experiment with HLA-A*02:01 [2] (setting [8]).

With KTNTGTIGA, the Kd with HLA-A*30:01 (source organism: Dengue virus 2 Jamaica/1409/1983) was determined as 2.94 nM.

Consider EEITPHCAL, for which the Kd with HLA-B*40:01 (source organism: Mammarenavirus lassaense) came out at 0.0266 µM.

As for HVLMHSPLV, the Kd in the experiment with HLA-A*30:01 (setting [6]) was found to be 29.9 nM.

Consider KLWAQCVQL, for which the dissociation constant Kd with HLA-A*02:03 (setting [9]) amounted to 0.194 µM; with HLA-A*02:06 (setting [9]), 0.00947 µM; with HLA-A*02:02 (setting [9]), 0.0127 µM; with HLA-A*31:01 (source organism: SARS-CoV1) it was 0.303 µM; with HLA-A*03:01 (source organism: SARS-CoV1), 2.86 µM; in the experiment with HLA-A*02:01 [2] (source organism: SARS-CoV1), 0.109 µM.

Take KCIEYVTLN: the IC50 with HLA-A*02:01 [4] (source organism: Vaccinia virus Copenhagen) is at least 125 µM.

As to TTLTASLVML, the Kd with HLA-A*01:01 [3] (setting [10]) came out at 1.05 µM.

Consider GLFPFHFTL, for which the Kd with HLA-A*02:01 [2] (setting [11]) came out at 0.0004 µM.

For ALPGPDGVV, the figures for the Kd with HLA-A*69:01 (setting [12]) and with HLA-A*02:01 [2] (setting [12]) were at least 20 µM and 0.553 µM, respectively.

For VTAKWLWGFL, the Kd with HLA-A*01:01 [3] (setting [13]) is 17.7 µM.

As for KVKFYKREL, the equilibrium dissociation constant (Kd) with HLA-A*30:01 (setting [6]) was found to be 41.9 nM.

In the experiment with HLA-A*02:01 [4] (setting [14]), GMHMVAGHD displayed an IC50 of 67.8 µM.

RYRMHPMSK: the Kd with HLA-A*30:01 (setting [6]) amounted to 0.0676 nM.

Turning to LSIVSLFPLC, the dissociation constant (Kd) in the experiment with HLA-A*30:01 (setting [13]) was determined as 801 nM.

Consider QLCDEITIL, for which the figures for the Kd with HLA-B*15:01 (setting [8]) and in the experiment with HLA-A*02:01 [2] (setting [8]) were 1.2 µM and 0.745 µM, respectively.

Regarding ALASFLFGF, the dissociation constant Kd with HLA-B*15:01 (source organism: Pseudomonas aeruginosa) was 0.745 µM.

With PTWFGISFR, the dissociation constant Kd was 0.209 µM with HLA-A*31:01 (setting [15]) and at least 20 µM with HLA-A*03:01 (setting [15]).

In the case of VKVLRPTPRG, in the experiment with HLA-A*30:01 (setting [10]), the Kd was determined as 6080 nM.

For the sequence ILWGYGFLQ, the results for the dissociation constant (Kd) with HLA-A*69:01 (setting [16]), with HLA-B*58:01 (setting [16]) and with HLA-A*02:01 [2] (setting [16]) were 12.9 µM, 4.79 µM and 0.218 µM, respectively.

Consider TSSDTYACW, for which the equilibrium dissociation constant (Kd) amounted to 19.4 µM with HLA-A*11:01 (source organism: SARS-CoV1) and 0.0145 µM in the experiment with HLA-B*58:01 (source organism: SARS-CoV1).

With RSQSSTIIV, the dissociation constant Kd with HLA-A*30:01 (setting [6]) was 559 nM.

Regarding VMKRYSAPSE, the dissociation constant (Kd) with HLA-A*30:01 (setting [10]) is 6330 nM.

The sequence YVHKAQGTG gave a 50% inhibitory concentration (IC50) with HLA-A*02:01 [4] (setting [17]) of at least 236 µM.

For the sequence CMKSFFGWK, the equilibrium dissociation constant (Kd) in the experiment with HLA-A*03:01 (source organism: Influenza A virus (A/duck/Fujian/17/2001(H5N1))) was found to be 0.848 µM.

In the experiment with HLA-B*15:01 (source organism: Mycobacterium tuberculosis F11), AISAQVAAY displayed a Kd of 1.27 µM.

ALVCGLRQL displayed a 50% inhibitory concentration (IC50) in the experiment with HLA-A*02:01 [4] (setting [17]) of 22.8 µM.

For the sequence VKVLRPTPKG, the dissociation constant (Kd) in the experiment with HLA-A*30:01 (setting [18]) was determined as 9230 nM.

On to RSWQPPQPR, for which the equilibrium dissociation constant (Kd) with HLA-A*31:01 (setting [19]) was 0.035 µM; with HLA-A*03:01 (setting [19]) it was at least 20 µM.

As to VVGKPYKEV, the Kd was found to be 0.605 µM with HLA-A*69:01 (setting [20]) and 1.96 µM with HLA-A*02:01 [2] (setting [20]).

For IMDASSFTL, the Kd came to 5.7 µM with HLA-A*01:01 [1] (setting [21]); 0.997 µM with HLA-A*69:01 (setting [21]); 0.139 µM with HLA-B*15:01 (setting [21]); 0.0495 µM with HLA-B*58:01 (setting [21]); 0.432 µM with HLA-B*40:01 (setting [21]); 0.0308 µM with HLA-A*02:01 [2] (setting [21]).

In the experiment with HLA-B*40:01 (source organism: Mycobacterium tuberculosis variant bovis BCG str. Pasteur 1173P2), AELRHLNPL returned a Kd of 0.0442 µM.

As to GVYTGSIGY, the Kd with HLA-A*11:01 (setting [22]) was 0.0016 µM; with HLA-A*03:01 (setting [22]) it was 0.0026 µM.

RTICTLPYL: the equilibrium dissociation constant (Kd) with HLA-A*30:01 (setting [6]) was found to be 0.738 nM.

On to PLGVIHNST, for which the 50% inhibitory concentration (IC50) with HLA-A*02:01 [4] (setting [14]) was at least 120 µM.

As to QAERTGEPDY, the Kd with HLA-A*30:01 (setting [18]) worked out at 6210 nM.

As to GLFLTTEAV, in the experiment with HLA-A*02:01 [4] (setting [11]), the 50% inhibitory concentration (IC50) came to 0.05 µM.

Sequence LLVAPAYSF registered a Kd in the experiment with HLA-B*46:01 of at least 20 µM.

For the sequence ETWVETWAF, the Kd is at least 20 µM with HLA-A*03:01 (setting [23]); at least 20 µM with HLA-B*27:05 (setting [23]); 1.17 µM with HLA-B*15:01 (setting [23]); 3 µM with HLA-B*58:01 (setting [23]); at least 20 µM with HLA-B*07:02; at least 20 µM with HLA-A*02:01 [2] (setting [23]).

With FTNMEVQLI, in the experiment with HLA-A*01:01 [3] (setting [13]), the dissociation constant (Kd) amounted to 5.85 µM.

In turn, RFLTHYFTK gave a Kd with HLA-A*01:01 [1] (setting [15]) of at least 20 µM.

Sequence IRSEELSFT registered a concentration for half-maximal inhibition (IC50) with HLA-A*02:01 [4] (setting [14]) of at least 2410 µM.

In the case of MLIGIEILN, in the experiment with HLA-A*02:01 [4] (setting [6]), the IC50 stood at 0.554 µM.

On to YKLFLESGA, for which the half-inhibitory concentration (IC50) with HLA-A*02:01 [4] (setting [14]) is at least 209 µM.

In the experiment with HLA-B*40:01 (source organism: Influenza A virus (A/Hong Kong/1131/1998(H1N1))), REKIDGVKL displayed a dissociation constant Kd of 0.0469 µM.

In the case of IQQLPETYF, the dissociation constant (Kd) in the experiment with HLA-A*11:01 (source organism: SARS-CoV1) was at least 51 µM; with HLA-B*15:01 (source organism: SARS-CoV1), 0.188 µM; with HLA-B*58:01 (source organism: SARS-CoV1), at least 23.4 µM; in the experiment with HLA-A*02:01 [2] (source organism: SARS-CoV1) it was 16.8 µM.

For the sequence ALSSLAKHG, the IC50 with HLA-A*02:01 [4] (setting [14]) is at least 91.8 µM.

Turning to SSPGPTTEA, the 50% inhibitory concentration (IC50) with HLA-A*02:01 [4] (setting [17]) amounted to 14.6 µM.

In the case of YVPSAEDNYL, the Kd with HLA-A*02:03 (setting [6]) was at least 70.4 µM; with HLA-A*02:06 (setting [6]) it was at least 69.8 µM; with HLA-A*02:02 (setting [6]) it was at least 70 µM.
